Numbering of substitutions follows the chain as printed.
B1: AMC11 scDb (bispecific antibody)
chain: DIRVTQSPSSLSASVGDRVTITCRASQNIMWYLNWYQQKPGKAPKLLIYAASSLQSGVPSRFSGSGSGTDFTLTISSLQPEDFATYYCQQAYRIPYTFGQGTKLEIKGGGGSEVQLQQSGPELVKPGASMKISCKASGYSFTGYTMNWVKQSHGKNLEWMGLINPYKGVSTYNQKFKDKATLTVDKSSSTAYMELLSLTSEDSAVYYCARSGYYGDSDWYFDVWGAGTTVTVSSGGGGSGGGGSGGGGSDIQMTQTTSSLSASLGDRVTISCRASQDIRNYLNWYQQKPDGTVKLLIYYTSRLHSGVPSKFSGSGSGTDYSLTISNLEQEDIATYFCQQGNTLPWTFAGGTKLEIKGGGGSQVQLVQSGAEVKKPGASVKVSCKVSGYTLTELSMHWVRQAPGKGLEWMGGFDPEDGETIYAQKFQGRVTMTEDTSTDTAYMELSSLRSEDTAVYYCATDQGSSWGFYWGQGTLVTVSS
notes: as m68
B2: AM16 scDb (bispecific antibody)
chain: DIQLTQSPSSLSASVGDRVTISCRASQSIMTYLNWYQQRPGKAPKLLIYSASRLQSGVPSRFSGSGYGTEFTLTISSLQPEDFATYYCQQSYSTPFTFGPGTKVDIKGGGGSEVQLQQSGPELVKPGASMKISCKASGYSFTGYTMNWVKQSHGKNLEWMGLINPYKGVSTYNQKFKDKATLTVDKSSSTAYMELLSLTSEDSAVYYCARSGYYGDSDWYFDVWGAGTTVTVSSGGGGSGGGGSGGGGSDIQMTQTTSSLSASLGDRVTISCRASQDIRNYLNWYQQKPDGTVKLLIYYTSRLHSGVPSKFSGSGSGTDYSLTISNLEQEDIATYFCQQGNTLPWTFAGGTKLEIKGGGGSQVQLVQSGAEVKKPGASVKVSCKVSGYTLTELSMHWVRQAPGKGLEWMGGFDPEDGETIYAQKFQGRVTMTEDTSTDTAYMELSSLRSEDTAVYYCATDQGSSWGFYWGQGTLVTVSS
notes: as m68
B3: AMC1 scDb (bispecific antibody)
chain: DIRLTQSPSSLSASVGDRVTMTCRASQTVATYVNWYQQKPGRAPKLLMYVTSIRQSEVPSRFSGDGFGTDFTLTINPLQPDDFATYYCQQAYSTPVTFGQGTKLEIKGGGGSEVQLQQSGPELVKPGASMKISCKASGYSFTGYTMNWVKQSHGKNLEWMGLINPYKGVSTYNQKFKDKATLTVDKSSSTAYMELLSLTSEDSAVYYCARSGYYGDSDWYFDVWGAGTTVTVSSGGGGSGGGGSGGGGSDIQMTQTTSSLSASLGDRVTISCRASQDIRNYLNWYQQKPDGTVKLLIYYTSRLHSGVPSKFSGSGSGTDYSLTISNLEQEDIATYFCQQGNTLPWTFAGGTKLEIKGGGGSQVQLVQSGAEVKKPGASVKVSCKVSGPKLYEVSMHWVRQAPGKGLEWMGGFDPEDGETIYAQKFQGRVTMTEDTSTDTAYMELSSLRSEDTAVYYCATDQGASWGFYWGQGTLVTVSS
notes: as m68
B4: AMC6 scDb (bispecific antibody)
chain: B3 chain with A463S
notes: as m68
B5: AM1 scDb (bispecific antibody)
chain: B1 chain with S26D, Q27V, N28H, M30Y, A91S, R93S, I94T
notes: VLA-VHB-VLB-VHA, anti-CD3 UCHT1
B6: AM5 scDb (bispecific antibody)
chain: B1 chain with N28S, M30S, W31S, G369V, T459A
notes: as m68
B7: AMC7 scDb (bispecific antibody)
chain: B1 chain with A91S, R93S, I94T, Y388P, T389K, T391Y, L393V
notes: as m68
B8: AMC14 scDb (bispecific antibody)
chain: B1 chain with Y388P, T389K, T391Y, L393V
notes: as m68
B9: AMC3 scDb (bispecific antibody)
chain: B1 chain with A91S, R93S, I94T, Y388P, T389K, T391Y, L393V, S463A
notes: as m68
B10: AM3 scDb (bispecific antibody)
chain: B1 chain with S26D, Q27H, N28H, M30F, A91S, R93S, I94T
notes: as m68
B11: AMC10 scDb (bispecific antibody)
chain: B2 chain with S22T, S28N, T31W, R39K, S50A, R53G, Y67S, E70D
notes: as m68
B12: AMC12 scDb (bispecific antibody)
chain: B1 chain with Y388P, T389K, T391Y, L393V, S463A
notes: as m68
B13: AM4 scDb (bispecific antibody)
chain: B1 chain with S26D, Q27I, N28D, M30R, A91S, R93S, I94T
notes: as m68
B14: AMC4 scDb (bispecific antibody)
chain: DIRVTQSPSSLSASVGDRVTITCRADHHIFWYLNWYQQKPGKAPKLLIYAASSLQSGVPSRFSGSGSGTDFTLTISSLQPEDFATYYCQQSYSTPYTFGQGTKLEIKGGGGSEVQLQQSGPELVKPGASMKISCKASGYSFTGYTMNWVKQSHGKNLEWMGLINPYKGVSTYNQKFKDKATLTVDKSSSTAYMELLSLTSEDSAVYYCARSGYYGDSDWYFDVWGAGTTVTVSSGGGGSGGGGSGGGGSDIQMTQTTSSLSASLGDRVTISCRASQDIRNYLNWYQQKPDGTVKLLIYYTSRLHSGVPSKFSGSGSGTDYSLTISNLEQEDIATYFCQQGNTLPWTFAGGTKLEIKGGGGSQVQLVQSGAEVKKPGASVKVSCKVSGPKLYEVSMHWVRQAPGKGLEWMGGFDPEDGETIYAQKFQGRVTMTEDTSTDTAYMELSSLRSEDTAVYYCATDQGASWGFYWGQGTLVTVSS
notes: as m68
B15: AM18 scDb (bispecific antibody)
chain: B1 chain with V4L, A13V, Q27E, N28D, M30R, W31Y, L33V, A91S, R93S, I94T
notes: as m68
B16: AM12 scDb (bispecific antibody)
chain: B1 chain with A91S, R93S, I94T, D416Q, S463A
notes: as m68
B17: AMC5 scDb (bispecific antibody)
chain: B14 chain with H27I, H28D, F30R
notes: as m68

Target: T1, HLA-A*02:01/MAGE-A4^230-239 displayed on cells (MAGE-A4^230-239 pulsed T2 cells; NCI-H1703, A375, THP1, … (human, UniProt P04439 25-365 at identity 0.94); P61769 21-119)
Test: cell-based or functional assay

Binder | EC50 vs. A375 (pM), T-cell specific killing
B1 | 2.3 pM

Target: T2, HLA-A*02:01/MAGE-A4^230-239, soluble recombinant biotinylated pHLA (human, UniProt P04439 25-299 at identity 0.94); P61769 21-119, biotinylated)
T2 construct: Empty biotinylated HLA-A2 monomers (Tetramer Shop) loaded with synthetic peptide; also called MAGE-A4 pMHC; MAGE-A4-pHLA
Test: ELISA, soluble biotinylated pHLA on neutravidin, scDb, protL-HRP
Experimental: ELISA plates were coated with 5 μg/mL NeutrAvidin in PBS and incubated 16 h/4° C. (step (a)) and blocked with 5% skim milk powder in PBST for 1 h/room temperature (RT) (step (c)). […] Bound phage particles were detected with an anti-Fd antibody (anti-M13-HRP (Amersham Biosciences)), whereas bound IgG1 and scDb was detected with HRP conjugated protein L (Genscript) (step (i)). […] Plates were developed with TMB solution and read at 450 nm using a microplate reader (step (k)). Between each layer, the plates were washed 3× with PBST (steps (b), (d), (f), (h), and (j)).

Binder | EC50
B2 | 1.85 nM
B3 | 0.45 nM
B4 | 0.61 nM
B5 | 0.36 nM
B6 | 1.03 nM
B7 | 0.41 nM
B8 | 0.47 nM
B9 | 0.35 nM
B1 | 0.81 nM
B10 | 0.48 nM
B11 | 0.46 nM
B12 | 0.25 nM
B13 | 0.28 nM
B14 | 0.36 nM
B15 | 0.51 nM
B16 | 0.12 nM
B17 | 0.32 nM

Target: T1, HLA-A*02:01/MAGE-A4^230-239 displayed …
Test: cell-based or functional assay
Remark: another data set of the same source

Binder | EC50 vs. NCI-H1703 (pM), T-cell specific killing
B2 | 5.3 pM
B5 | 6.4 pM
B6 | 6.4 pM
B1 | 0.72 pM
B10 | 3.4 pM
B13 | 3.1 pM
B15 | 4.4 pM
B16 | 4.3 pM

Target: T1, HLA-A*02:01/MAGE-A4^230-239 displayed …
Test: cell-based or functional assay
Remark: another data set of the same source

Binder | IFNγ EC50 vs. target positive cells (pM)
B2 | 12.3 pM
B3 | 3.6 pM
B4 | 8.6 pM
B5 | 11.8 pM
B6 | 9 pM
B7 | 8.5 pM
B8 | 8.2 pM
B9 | 7.3 pM
B1 | 8.5 pM
B10 | 5.8 pM
B11 | 1.7 pM
B12 | 6.9 pM
B13 | 4.5 pM
B14 | 9.2 pM
B15 | 9.5 pM
B16 | 6.4 pM
B17 | 8 pM
